Results on 3 molecules are retold here after patent publication US20230091175A1.

Assay [1] addresses human IL 12 protein (Recombinant His, C-terminus) (aa23-328) (LS-G134297-50: LSBio, Inc.) (human) (UniProt P29460). The assay can be described thus: SPR (Biacore 8K), antigen immobilized on CM4 chip, antibody as analyte.
Assay [2] has the same target. The assay can be described thus: SPR (Biacore 8K); affinity ratio with the original antibody as 1.0.

Sequence of human IL 12 protein (Recombinant His, C-terminus) (aa23-328) (LS-G134297-50: LSBio, Inc.) (human) (P29460 23-328, form in doubt): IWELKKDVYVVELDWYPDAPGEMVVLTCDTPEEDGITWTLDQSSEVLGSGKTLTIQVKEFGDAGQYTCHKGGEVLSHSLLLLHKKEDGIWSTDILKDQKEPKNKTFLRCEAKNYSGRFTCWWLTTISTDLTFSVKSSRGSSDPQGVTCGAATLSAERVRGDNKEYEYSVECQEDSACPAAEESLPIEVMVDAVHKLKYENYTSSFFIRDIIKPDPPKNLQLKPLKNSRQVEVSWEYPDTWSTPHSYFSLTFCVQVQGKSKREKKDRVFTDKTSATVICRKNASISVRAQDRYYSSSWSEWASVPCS

B1: mouse anti-human IL-12 antibody (clone 22-4), original (unmodified) (Fab, V domains shown, not shown: a dimerising Fc or GST)
VH: EVQLQESGPSLVKPSQTLSLTCSVTGDSITSGYWNWIRKFPGNKLEYMGYISYSGSTYYNPSLKSRISITRDTSKNQNYLQLNSVTTEDTATYYCARRDTTVVVPYYFDYWGQGTTLTVSS
VL: DIVMTQSHKFMSTSVGDRVSITCKASQDVGTAVAWYQQKPGQSPKLLIYWASTRHTGVPGRFTGSGSGTDFTLTINNVQSEDLADYFCQQYSSYPLTFGAGTKLELKR
Take B1: in assay [1], the Kd amounted to 10.3 nM. The KD ratio in assay [2] worked out at 1.

B2: R4 variant of anti-IL-12 antibody (clone 22-4) (Fab, V domains shown, not shown: a dimerising Fc or GST)
VH: EVQLQESGPSLVKPSQTLSLTCSVTGDSITSGYWNWIRKFPGNKLEYMGYISYSGSTYYNPSLKSRISITRDTSKNQNYLQLNSVTTEDTATYYCARRDTTVVVPYYFDYWGQGTTLTVSS
VL: DIVMTQSHKFMSTSVGDRVSITCKASQDVGTAVAWYQQKPGQSPKLLIYWASTRHTGVPGRFRGRGRGTRFTLTINNVQSEDLADYFCQQYSSYPLTFGAGTKLELKR
On to B2, for which the Kd in assay [1] amounted to 0.245 nM. In assay [2], the KD ratio worked out at 42.2.

B3: R3 variant of anti-IL-12 antibody (clone 22-4) (Fab, V domains shown, not shown: a dimerising Fc or GST)
VH: EVQLQESGPSLVKPSQTLSLTCSVTGDSITSGYWNWIRKFPGNKLEYMGYISYSGSTYYNPSLKSRISITRDTSKNQNYLQLNSVTTEDTATYYCARRDTTVVVPYYFDYWGQGTTLTVSS
VL: DIVMTQSHKFMSTSVGDRVSITCKASQDVGTAVAWYQQKPGQSPKLLIYWASTRHTGVPGRFRGRGRGTDFTLTINNVQSEDLADYFCQQYSSYPLTFGAGTKLELKR
Regarding B3, the Kd in assay [1] came to 0.497 nM. Also, in assay [2], the KD ratio is 20.8.
